This note sets out measurements from patent US8026342B2, “Compositions and methods for binding sphingosine-1-phosphate” (Lpath, Inc., priority 2006, dated 2011).

For one series, the system named is CNV lesions. The series is described as follows: CNV animal model of AMD, murine vs humanized mAbs (Example 17). Type of series: in vivo, mice. Particulars: for Percent inhibition of lesion size: 14 days post laser. The protocol: The humanized antibody variants and the murine antibody were compared for their ability to inhibit neo-vascularization in the CNV animal model of AMD as shown in FIG. 13. […] Mice were sacrificed 14 days post laser surgery. Control mice were treated with aqueous buffer (PBS) or an isotype-matched non-specific antibody. Three of the humanized variants inhibited angiogenesis essentially equivalently to the murine antibody as assessed by measurement of CNV area. CNV lesion volumes are represented as means±SEM.
For the induction of CNV, mice were anesthetized with a mixture of ketamine (14 mg/kg) and xylazine (30 mg/kg) in sterile saline administered intraperitoneally at a dose of 5 μL per 20 g of body weight. Their pupils were then dilated with one drop each of ophthalmic tropicamide (0.5%) and phenylephrine (2.5%). An argon green ophthalmic laser (Oculight GL 532 nm, Iridex Corporation, Mountain View, Calif.) coupled to a slit lamp set to deliver a 100 msec pulse at 150 mW with a 50 μm spot size will then be used to rupture Bruch's membrane in three quadrants of the right eye located approximately 50 μm from the optic disc at relative 9, 12 and 3 o'clock positions. The left eye served as uninjured control in all cases.
The morphometric and volumetric CNV lesions were measured as follows. Two weeks after laser induction of CNV, the animals were euthanized by overdose of ketamine-xylazine mixture, then undergo whole body perfusion via cardiac puncture with 6 ml 4% paraformaldehyde in PBS, pH 7.5, (fixative) as previously described (Sengupta et al., 2003). The eyes will then be enucleated, punctured with a 27 g needle 1 mm posterior to the limbus, and immersed in fixative for 1 hr at room temperature, then washed 2× by immersion in PBS for 30 min. The eyes will then be dissected to isolate the posterior segment consisting of the retinal pigment epithelium, the choriocapillaris and the sclera. This tissue was then permeabilized and reacted with rhodamine-conjugated R. communis agglutinin I (Vector Laboratories, Burlingame, Calif.) to detect the CNV lesion as previously described (Sengupta et al., 2003; Sengupta et al., 2005). […]
Captured digital images were evaluated morphometrically using ImageJ software (Research Services Branch, National Institutes of Health, Bethesda, Md.). Images were split into separate RGB channels for analysis of the red and green channels as follows: 1) a calibration for the specific objective and microscope was applied to set the pixel-to-length ratio; 2) a threshold was applied using the Otsu algorithm; 3) images will be made binary; 4) a region-of-interest (ROI) was outlined to include the entire lesion area; 5) a particle analysis was performed to quantify the pixel area above the threshold level within the ROI. […]

Series [1] is described as follows: 28-day toxicity and toxicokinetic study of LT1002 in mice. Particulars: 28 days. The class given is in vivo. The protocol:
The purpose of this study was to determine the toxicity and toxicokinetic profile of the murine anti-S1P monoclonal antibody, LT1002, following daily administration to C57/BL6 mice. The study was conducted by an independent contract laboratory organization, LAB Research, Inc. The LT1002 dosing solutions were administered for 28 consecutive days to animals in each group by bolus intravenous injection via the tail vein (Days 1-14) and then by bolus intraperitoneal injection (Days 15-28), over a period of approximately 0.5-1.0 minute. The treated group animals were dosed with LT1002 at 30, 75 or 200 mg/kg (n=6 per group) and compared to animals treated with PBS as a saline (vehicle) control group.
During the study, animals were monitored for effects on mortality, clinical condition, body weight and food consumption. Blood samples were collected from a subgroup of animals at necropsy for assessment of hematology, coagulation and clinical chemistry. Study animals were euthanized and subjected to a necropsy examination. Selected organs were weighed and a full list of tissues was retained. A histopathology examination was performed on the full tissue list from all control and high dose animals (200 mg/kg/day) and all abnormalities, while target organs were examined on lower dose groups. Blood samples were collected from the toxicokinetic animals (3 animals/sex/group/time point) on Days 1, 14 and 28 and the animals were euthanized and discarded without examination.

[2] abbreviates: 0.5 ug intravitreal, Day 0 and Day 6.

As to “LT1009: humanized anti-S1P IgG1/kappa mAb with Cys to Ala in HCDR2, light chain with 5 backmutations; SEQ ID NO: 31/32”, in the series on CNV lesions (setting [2]), the “inhibition of neovascularization (CNV area/volume), qualitative” value was “markedly suppressed neovascularization” and the “Percent inhibition of lesion size” value is recorded as about 99%. Besides, the “inhibition compared to non-specific antibody control” value with CNV lesions (p<0.05) is listed as “significant inhibition”.

B1: LT1002: murine anti-S1P monoclonal antibody, IgG1 kappa, from hybridoma clone 306D326.26 (antibody, listed as Mus sp., V domains shown)
VH: QAHLQQSDAELVKPGASVKISCKVSGFIFIDHTIHWMKQRPEQGLEWIGCISPRHDITKYNEMFRGKATLTADKSSTTAYIQVNSLTFEDSAVYFCARGGFYGSTIWFDFWGQGTTLTVS
VL: ETTVTQSPASLSMAIGEKVTIRCITTTDIDDDMNWFQQKPGEPPNLLISEGNILRPGVPSRFSSSGYGTDFLFTIENMLSEDVADYYCLQSDNLPFTFGSGTKLEIK
B1: the “Percent inhibition of lesion size” value in the series on CNV lesions (setting [2]) is on record as “approximately 80%”. Also, the “average lymphocyte counts (+/-SD)” value in series [1] (30 mg/kg daily) was 0.856+/−0.426 10^9 cells/L; in series [1] (75 mg/kg daily) it was 0.902+/−0.269 10^9 cells/L; in series [1] (200 mg/kg daily) it was 0.638+/−0.262 10^9 cells/L.
